Measured values from publication PMC10834534, “The NMR structure of the Ea22 lysogenic developmental protein from lambda bacteriophage” (Scientific Reports, 2024).

Molecular target: the molecule itself
Assay: NMR solution structure; 0.6 mM in 5 mM Tris-Cl pH 7.6, 50 mM NaCl, 0.05% NaN3, 308 K; intermolecular distance restraints from a 3D 13C-filtered/13C-separated NOESY on a mixed 12C/13C sample

B1: carboxy-terminal domain (CTD) fragment of λ Ea22 (102–182) (domain or fragment, bacteriophage λ)
chain: SNEVREDGNQFLVVRHPGKTPVIKHCTGDLEEFLRQLIEQDPLVTIDIITHRYYGVGGQWVQDAGEYLHMMSDAGIRIKGEIETAV
notes: Ea22 of bacteriophage lambda, carboxy-terminal domain, residues 102-182 of the 182-residue protein; gene synthesized by ATUM, in plasmid pD441NH; Uniformly 13C,15N (or 15N) labelled for NMR; a mixed 12C/13C dimer was made by mixing 12C/14N and 13C/15N proteins 1:1 in 6 M urea and diluting rapidly; Dimer printed as 21.4 kDa; also called λ Ea22 CTD; Ea22 CTD; not shown: 6xHis, N-terminal, kept
  stoichiometry N: 2
